Measurements published in US20240029824A1 (University of Washington, published 2024).
Residue numbers refer to the chain shown, from its start.

T1: DHT01-4arm-01 chain C
T1 construct: also called DHT01-4arm-02 chain C; C2-DHT01-01 chain B
T1 chain: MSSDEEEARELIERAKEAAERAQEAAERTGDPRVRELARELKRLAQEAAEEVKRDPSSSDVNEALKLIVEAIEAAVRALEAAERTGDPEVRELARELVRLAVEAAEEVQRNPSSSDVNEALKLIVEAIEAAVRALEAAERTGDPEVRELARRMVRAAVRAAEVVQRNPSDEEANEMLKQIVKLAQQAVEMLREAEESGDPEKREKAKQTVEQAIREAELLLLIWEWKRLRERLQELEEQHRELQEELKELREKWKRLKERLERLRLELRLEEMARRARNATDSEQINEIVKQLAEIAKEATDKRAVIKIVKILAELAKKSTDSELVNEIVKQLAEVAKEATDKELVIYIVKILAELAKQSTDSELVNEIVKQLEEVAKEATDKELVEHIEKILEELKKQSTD

T2: DHT05_3arm_A62/B71/C62 chain C
T2 chain: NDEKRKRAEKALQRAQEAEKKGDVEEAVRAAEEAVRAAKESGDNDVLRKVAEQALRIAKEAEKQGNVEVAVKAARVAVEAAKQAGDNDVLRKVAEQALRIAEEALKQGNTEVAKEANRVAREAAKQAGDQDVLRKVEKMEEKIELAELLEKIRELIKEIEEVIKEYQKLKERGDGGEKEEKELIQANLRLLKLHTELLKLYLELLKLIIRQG

T3: DHT05_3arm_A62/B71/C62 chain B
T3 chain: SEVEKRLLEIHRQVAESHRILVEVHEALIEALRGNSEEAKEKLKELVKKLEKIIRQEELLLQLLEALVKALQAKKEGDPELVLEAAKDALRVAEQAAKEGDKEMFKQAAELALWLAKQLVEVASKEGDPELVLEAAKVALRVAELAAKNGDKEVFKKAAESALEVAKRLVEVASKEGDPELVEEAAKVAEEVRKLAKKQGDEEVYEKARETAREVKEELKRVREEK

T4: DHT05 chain C (SEQ ID NO: 89)
T4 chain: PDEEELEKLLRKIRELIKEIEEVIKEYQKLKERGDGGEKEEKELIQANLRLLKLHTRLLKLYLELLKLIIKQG

T5: DHT05 chain C (SEQ ID NO: 98)
T5 chain: T4 chain with K29E, R57E

T6: DHT01 chain B
T6 chain: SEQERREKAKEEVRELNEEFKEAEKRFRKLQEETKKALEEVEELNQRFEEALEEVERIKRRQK

T7: DHT01 chain C
T7 chain: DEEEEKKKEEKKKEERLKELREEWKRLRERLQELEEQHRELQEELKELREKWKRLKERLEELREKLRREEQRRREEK

T8: DHT05 chain C (SEQ ID NO: 95)
T8 chain: T4 chain with K29E, K42E

T9: DHT03_3arm_A21/B21/C82 chain C
T9 construct: also called chain C DHR82 fusion; chain C of C3-DHT03-01-DHR82 and C4-DHT03-01-DHR82
T9 chain: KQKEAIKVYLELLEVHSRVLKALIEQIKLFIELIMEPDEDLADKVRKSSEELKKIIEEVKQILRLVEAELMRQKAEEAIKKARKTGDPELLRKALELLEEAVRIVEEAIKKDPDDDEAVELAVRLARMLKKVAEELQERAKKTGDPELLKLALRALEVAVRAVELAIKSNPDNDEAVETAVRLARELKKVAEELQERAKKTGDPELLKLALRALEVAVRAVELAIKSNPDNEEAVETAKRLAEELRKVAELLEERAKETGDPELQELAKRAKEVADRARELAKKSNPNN

T10: DHT03_3arm_A21/B21/C59 chain C
T10 chain: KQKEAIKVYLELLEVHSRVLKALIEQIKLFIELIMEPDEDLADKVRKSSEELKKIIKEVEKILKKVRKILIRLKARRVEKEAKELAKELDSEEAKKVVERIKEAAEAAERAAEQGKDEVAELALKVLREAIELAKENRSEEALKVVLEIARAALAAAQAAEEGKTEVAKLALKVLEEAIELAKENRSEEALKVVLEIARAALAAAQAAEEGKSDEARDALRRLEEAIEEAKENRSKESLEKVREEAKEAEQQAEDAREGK

T11: DHT03_3arm_A21/B21/C62 chain C
T11 chain: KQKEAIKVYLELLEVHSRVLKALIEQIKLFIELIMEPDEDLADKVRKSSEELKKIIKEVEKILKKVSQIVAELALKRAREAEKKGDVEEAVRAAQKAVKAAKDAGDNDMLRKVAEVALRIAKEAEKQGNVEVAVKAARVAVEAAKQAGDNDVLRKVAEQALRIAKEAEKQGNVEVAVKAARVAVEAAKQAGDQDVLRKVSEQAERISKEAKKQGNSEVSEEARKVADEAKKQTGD

T12: DHT03_3arm_A21/B21/C53 chain C
T12 chain: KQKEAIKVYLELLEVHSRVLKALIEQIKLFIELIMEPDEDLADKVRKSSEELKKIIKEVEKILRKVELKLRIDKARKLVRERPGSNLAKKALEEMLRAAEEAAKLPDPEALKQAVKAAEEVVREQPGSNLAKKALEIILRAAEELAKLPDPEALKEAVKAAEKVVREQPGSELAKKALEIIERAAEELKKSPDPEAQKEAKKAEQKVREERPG

B1: DHT05 chain A (designed binder)
chain: PEEKKEIKRTTEEVKEEFRKIQEEIKKLEEEAKKAEKGNGKEEIKELLLRLSELLARSLQLLAQQIEAIAKLIRG
B2: DHT01-4arm-02 chain B (designed binder)
chain: MSSDEEEARELIERAKEAAERAQEAAERTGDPRVRELARELKRLAQEAAEEVKRDPSSSDVNEALKLIVEAIEAAVRALEAAERTGDPEVRELARELVRLAVEAAEEVQRNPSSSDVNRALKLIVRAIEAAVQLLEHAEKSGDPEVRELARELVRRLVEAAEEVQRNPSDEQKNTQLRRLIAKAEVWLLNEEFKEAEKRFRKLQEETKKALEEVEELNQRFEEALEEVERIKRRQK
notes: Strep-tag II was added to the N-terminus of chain B of DHT01 arms; also called C2-DHT01-04 chain B
B3: DHT05_3arm_A62/B71/C62 chain A (designed binder)
chain: NDEKRKRAEKALQRAQEAEKKGDVEEAVRAAQEAVRAAKESGDNDVLRKVAEQALRIAEEAEKQGNVEVAVKAARVAVEAAKQAGDNDVLRKVAEQALRIAEEAEKQGNVKVAADAVEVAVEAATQAGDQDVLRKASEQAKKVAKEAKKKGDHKVAVKATTLAVKAEFAAIQEEIKKLEEEAKKAEKGNGKEEIKELLLELSELLARSLQLLAQQIEAIAKLIRG
B4: DHT05 chain B (SEQ ID NO: 88) (designed binder)
chain: SEVEKRLLEIHRRVAESHRILVEVHEALIEALRGNSEEAKEKLKELVKELEKIIKEEEELLKELEKIVEEAS
B5: DHT05_2arm_A62/B14(2)-LHD101B14/C chain B (designed binder)
chain: SETEKRLLEIHRRVAESHRILVEVHEALIEALRGNSEEAKEKLKELVKKLEKIIREEEKLTVELAAKVAKSADDSEKVNEIVKTLAEIAKEATDKEQVIRIVKILAELAKQSTDSELVNEIVKQLAEVAKEATDKELVIYIVDILLKLAEQADDDELVEEIRKQLEEVAKEATDKELVEIIKAVIVLLVIISVVARMGVTMEIHKSGREVKVVIKGLHESQQEQLLEAVLRAAEEAGVRVRIRFKGDTVTIVVRG
B6: DHT01 chain A (designed binder)
chain: DEEEKLRESLEEQKKRVKEIEREHEEIREALKRLQESVKRQEEALRQLG
notes: one chain of the co-expressed design carried a 6xHis-tag and a second a Strep-tag II
B7: DHT05_2arm_A62/B14/C chain B (designed binder)
chain: SEVEKRLLEIHREVAESHRILVEVHEALIEALRGNSEEAKEKLKELVKKLEKIIKEEEELLKKLEKIVVQALAKAAKQATDSRQVNEIVKQLAEIAKEATDKRLVIEIVKILAELAKQSTDSELVNEIVKQLAEVAKEATDKELVIYIVKILAELAKQSTDSELVNEIVKQLEEVAKEATDKELVEHIEKILEELKKQSTD
B8: DHT03_3arm chain B (B21, SEQ ID NO: 73) (designed binder)
chain: SEKEKVEELAQRIREQLPDTELAREAQELADEARKSDDSEALKVVYLALRIVQQLPDTELAREALELAKEAVKSTDSEQLEVVRLALEIVQLAPDTRLARAALKLAKEAVKSTDQEELKKVKAILRVASEVLKLEEEAKKSQEEVERLKQEVEKASKAGLDHEGDSRIFKKIHDVVTKQIKVILRLIAVYAELVAIIG
notes: separately expressed with an N- or C-terminal 6xHis-tag

Assays:
[1] = molecular target: B4; experiment: SEC and SAXS; chains of one ABC heterotrimer
[2] = molecular target: T1, DHT01-4arm-01 chain C; experiment: SEC and SDS-PAGE; chains of one ABC heterotrimer
[3] = molecular target: T2, DHT05_3arm_A62/B71/C62 chain C; experiment: SEC and SAXS; chains of one ABC heterotrimer
[4] = molecular target: T3, DHT05_3arm_A62/B71/C62 chain B; experiment: SEC and SAXS; chains of one ABC heterotrimer
[5] = molecular target: T4, DHT05 chain C (SEQ ID NO: 89); experiment: SEC and SAXS; chains of one ABC heterotrimer
[6] = molecular target: T5, DHT05 chain C (SEQ ID NO: 98); experiment: co-expression, SEC, SAXS; chains of one ABC heterotrimer
[7] = molecular target: T6, DHT01 chain B; experiment: co-expression, IMAC and Strep-Tactin pull-down, SEC, native MS; chains of one ABC heterotrimer
Description: (§1) We obtained genes encoding 20 coiled coil designed heterotrimers (DHTs) in a tricistronic E. coli expression vector with one chain having a 6×His-tag and a second chain having Strep-tag II, expressed the proteins, and purified by immobilized metal affinity chromatography (IMAC) and Strep-Tactin pull-down. All designs were soluble and for 6 designs, all three components were observed by liquid chromatography-mass spectrometry (LC-MS) after both pull-down approaches. Of these, 5 eluted as monodisperse peaks by SEC, but only 1 design (DHT01) was an exclusive ABC heterotrimer by native mass spectrometry (nMS) and had good agreement with the design model via small angle X-ray scattering (SAXS) (FIG. 2d, Table 7).
(§2) Samples were analyzed by online buffer exchange native mass spectrometry (nMS) to evaluate sample purity and accurately determine oligomeric states⁴². Multiple instruments were used as the analyses were carried out over the duration of the protein design process. The mass spectrometers used for detection were a Q Exactive™ UHMR modified with a surface-induced dissociation device and an Exactive™ Plus EMR modified with a selection quadrupole and a surface-induced dissociation device (Thermo Fisher Scientific)⁴³. The liquid chromatography systems used for the buffer exchange include a Vanquish™ Duo UHPLC and a Dionex™ Ultimate 3000 HPLC (Thermo Fisher Scientific). A heated electrospray ionization source (HESI-II, Thermo Fisher Scientific) with a spray voltage of ˜4 kV was used for ionization. Protein samples stored in Tris buffer were injected (0.1-2 ug) onto the LC system and exchanged at a flow rate of 100-200 uL*min⁻¹ into 200 mM ammonium acetate (mobile phase) prior to ionization. Buffer exchange columns used include self-packed columns with P6 polyacrylamide gel (Bio-Rad Laboratories) and prototype buffer exchange columns provided by Thermo Fisher Scientific (Sunnyvale, CA). Instrument parameters were optimized to allow for ion transmission while minimizing unintentional ion activation. […]

[8] = molecular target: T7, DHT01 chain C; experiment: as above
Description: as §1, §2

[9] = molecular target: T8, DHT05 chain C (SEQ ID NO: 95); experiment: SEC and SAXS; chains of one ABC heterotrimer
[10] = molecular target: T9, DHT03_3arm_A21/B21/C82 chain C; experiment: individually purified chains mixed 1:1:1, heat annealed, SEC
Description: (§3) To test this idea, an equimolar amount of individually purified A, B, and C of DHT03_2arm_A21/B21/C were mixed together and run through an annealing protocol (see Methods) to allow these interfaces to reassemble in the presence of all components. A monodisperse SEC peak was observed belonging to the ABC heterotrimer state as confirmed by overlap with its SEC co-expressed tricistronic version (FIG. 3d). To explore the use of this approach for building, four different repeat protein fusions to chain C were annealed in the same manner and all four 3-arm heterotrimers were successfully reconstituted. […] The successful reconstitution of these ABC assemblies, following the independent expression and purification of each chain and explicit mixing at a 1:1:1 ratio, enables their use in conjunction with other de novo proteins to mediate the specific assembly of multi-component assemblies. Independent expression also has considerable advantages over tricistronic expression from a gene synthesis perspective as DNA becomes much more difficult and expensive to synthesize with increasing construct size.
(§4) To test whether the DHT03 components could properly assemble in the presence of other helical hairpin containing chains, as would be the case for more complex assemblies, we chose DHD131, a designed helical hairpin unit heterodimer containing buried hydrogen bond networks¹². […] We evaluated simultaneous reconstitution of DHD131 and DHT03_3arm_A21/B21/C82, since the size difference between the two constructs (if correctly assembled) should be detected by SEC. We separately expressed and individually purified the two chains of the heterodimer and the three chains of the heterotrimer, mixed them at a 1:1:1:1:1 ratio, and carried out annealing and SEC as described above.

[11] = molecular target: T10, DHT03_3arm_A21/B21/C59 chain C; experiment: as above
Description: as §3, §4

[12] = molecular target: T11, DHT03_3arm_A21/B21/C62 chain C; experiment: as above
Description: as §3, §4

[13] = molecular target: T12, DHT03_3arm_A21/B21/C53 chain C; experiment: as above
Description: as §3, §4

Binder: B1
- binding result [1]: binds

Binder: B2
- binding result [2]: binds

Binder: B3
- binding result [3]: binds
- binding result [4]: binds

Binder: B4
- binding result [5]: binds

Binder: B5
- binding result [6]: binds

Binder: B6
- binding result [7]: binds
- binding result [8]: binds

Binder: B7
- binding result [9]: binds

Binder: B8
- binding result [10]: binds
- binding result [11]: binds
- binding result [12]: binds
- binding result [13]: binds
